Experimental data: patent US9290540B2, “Angiotensin Type 2 (AT2) receptor agonists and uses thereof” (Lanthio Pep B.V., priority 2010, dated 2016)
Bridges are numbered along the chain shown (N, C = ends). Where no end group is shown, it is not given here. [ ]: non-standard residue; d: D form.

How the values were obtained:
[1] = molecular target: T1, AT2 receptor (Homo sapiens, UniProt P50052); test: Inhibition of peptide-induced ERK phosphorylation by AT2 receptor antagonist PD123319 in HBE cells; assay type: cell-based; conditions: for inhibition of peptide-induced ERK1 phosphorylation by PD123319 / inhibition of peptide-induced ERK2 phosphorylation by PD123319 / inhibition of peptide-induced ERK phosphorylation (ERK1 and ERK2) by PD123319 / inhibition of peptide-induced (total) Erk phosphorylation by PD123319: 20 min preincubation with 10^-6 M PD123319, peptide 10^-6 M
T1 construct: stimulate extracellular-signal-regulated kinase (ERK) phosphorylation in human bronchial epithelial (HBE) cells; endogenous in cells; host or cells: HBE (immortal human bronchial epithelial cell line)
T1 sequence (P50052 1-363): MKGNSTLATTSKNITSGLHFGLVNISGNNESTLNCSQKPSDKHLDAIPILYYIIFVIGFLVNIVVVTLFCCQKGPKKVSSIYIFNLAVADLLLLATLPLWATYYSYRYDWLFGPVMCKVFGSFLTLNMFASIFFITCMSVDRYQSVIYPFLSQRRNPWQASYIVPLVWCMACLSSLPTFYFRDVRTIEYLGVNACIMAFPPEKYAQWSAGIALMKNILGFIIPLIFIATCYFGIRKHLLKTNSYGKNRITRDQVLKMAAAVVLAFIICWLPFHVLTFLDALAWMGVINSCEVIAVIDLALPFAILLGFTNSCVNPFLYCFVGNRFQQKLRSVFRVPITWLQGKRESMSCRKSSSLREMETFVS
Description: (§1) Peptides were purchased from JPT: linear DDRVAIHA (SEQ ID No: 4), dKDRVdCIHC (SEQ ID No: 9), KDRVdCIHC (SEQ ID No: 9), DDRVdCIHC (SEQ ID No: 11), IDRVdCIHC (SEQ ID No: 12), NDRVdCIHC (SEQ ID No: 13), SDRVdCIHC (SEQ ID No: 14), in which dK stands for D-lysine and dC stands for D-cysteine. The AT2 receptor antagonist PD123319 was from Axon Medchem. Studies were performed using the immortal human bronchial epithelial cell line HBE (Cozens A L, et al. 1994 CFTR expression and chloride secretion in polarized immortal human bronchial epithelial cells. Am J Respir Cell Mol Biol 10:38-47). All culture media and supplements, multiwell plates and flasks were from PAA.
(§2) Cell culture. Multi-well plates received 1 ml from a coating solution (for 112 ml: F12 medium 100 ml; bovine serum albumin 10 ml (1 mg/ml); collagen I, Bovine 1 ml (3 mg/ml); human fibronectin 1 ml (1 mg/ml)) and were incubated for 6 hours at 37° C. and 5% CO2. Subsequently the coating solution was discarded and the plates were dried for 2 hours in the laminar flow cabinet. In each 12 well plate 8.10^4 HBE cells were seeded per well followed by incubation for 24 hours at 37° C. and 5% CO2. Cell culture medium was prepared by adding 432.2 ml MEM 199 basic medium to 50 ml […] FCS and 5 ml L-Glutamin (200 mM), 10 ml Penicillin/Streptomycin (10.000 units/ml/10 mg/ml) and 2.8 ml Gentamycin (10 mg/ml). At 85-90% confluency medium was replaced by medium without FCS and growth factors followed by again 24 hours incubation at 37° C. and 5% CO2.
(§3) Erk1 and Erk2 phosphorylation. The medium was removed from each well and was washed once with HBS buffer without calcium and magnesium. The capacity of peptide at 10^−6 M was tested after 20 min preincubation with either 10^−6 M of PD123319 or concomitant controls, followed by washing. Challenges and concomitant controls were performed at 1 ml/well during 10 min. All samples were tested in triplicate. After the challenge 150 μl RIPA buffer (RIPA, TBS, 1% Nonidet P-40, 0.5% sodium deoxycholate, 0.1% SDS, 0.004% sodium azide, 1% PMSF (2 mM final concentration), 1% sodium orthovanadate (1 mM final concentration) and 1% protease inhibitor cocktail) was added to each well. The plates were incubated for 15 minutes at 4° C. The lysed cells were scraped from the surface. The lysate was transferred to 1.5 ml eppendorf cups and centrifuged 5 minutes at 12.700×g to pellet the cell debris. The supernatant was transferred into new cups and of a 5 al sample the total protein content was determined via the DC protein assay according to lowry (Bio-Rad), with BSA used as calibration protein. Protein was separated on gel and blotted with p-ERK mouse monoclonal IgG2a and mouse GAPDH anti-rat IgG1 antibodies and as a second antibody goat anti-mouse IgG-AP. The phosphorylated Erk proteins and GAPDH were stained with BCIP/NBT and quantified relative to GAPDH and total Erk using TotalLab software. Alternatively, total Erk phosphorylation was measured after permeabilization of the non-detached cells.
In this example it is investigated whether or not cAng-(1-7) analogs with an N-terminal extension of two amino acids stimulate the AT2 receptor.
Thioether bridged peptide synthesis and cell culture and measurement of Erk1- and total Erk phosphorylation were essentially as in example 2.

[2] = tested on: precontracted aorta rings; test: Vasodilation on phenylephrine-precontracted aorta rings (organ bath); parameters: species or system Sprague Dawley rat; conditions: sub-nM concentration; peptides added cumulatively 0.1 nM to 1 μM; rings precontracted with 30 nM phenylephrine
Description: Peptides: KDRVdCIHC (SEQ ID No: 9), and YDRVdCIHC (SEQ ID No: 10) wherein dC stands for D-cysteine were purchased from JPT. Specified pathogen-free male Sprague Dawley rats (SD) (Harlan, Zeist, The Netherlands), weighing […] were used. Prior to the experiment, the animals were housed together with free access of tap water and solid chow (Harlan, Zeist, The Netherlands) in a temperature and humidity controlled room and a 12/12 h light/dark cycle. All protocols described were approved by the University of Groningen Committee for Animal Experimentation.
Thioether-bridged peptides were obtained from the disulfide bridged peptide via base-asisted sulfur extrusion as previously (Galande A K, et al 2003. Biopolymers 71:534-551).
(§4) Vasodilation on precontracted aorta-rings. Arterial rings for organ bath experiments were prepared as described previously (Kluskens L D, et al. 2009. J Pharmacol Exp Ther 328:849-54). Before testing the vasodilating effects of the peptides the rings were precontracted to 50% of their maximum contraction level with 30 nM phenylephrine (PE). The 5,8 thioether bridged peptides KDRV[AIHA]C (SEQ ID No: 3) or YDRV[AIHA]c (SEQ ID No: 5) were added cumulatively in a range of 0.1 nM to 1 μM. Vasodilation data are represented as percentage of relaxation of 30 nM PE contraction.

[3] = molecular target: T2, Mas receptor (Rattus norvegicus, UniProt P12526); test: Peptide-induced vasodilation of precontracted aorta rings in presence of Mas receptor antagonist D-Pro7-Ang-(1-7); parameters: species or system Sprague Dawley rat; conditions: D-Pro7-Ang-(1-7) 0.1 μM, 10 min before 30 nM PE
T2 construct: vasodilation in precontracted aorta rings from Sprague Dawley rats; from tissue; host or cells: aorta rings of male Sprague Dawley rats
T2 sequence (P12526 1-324): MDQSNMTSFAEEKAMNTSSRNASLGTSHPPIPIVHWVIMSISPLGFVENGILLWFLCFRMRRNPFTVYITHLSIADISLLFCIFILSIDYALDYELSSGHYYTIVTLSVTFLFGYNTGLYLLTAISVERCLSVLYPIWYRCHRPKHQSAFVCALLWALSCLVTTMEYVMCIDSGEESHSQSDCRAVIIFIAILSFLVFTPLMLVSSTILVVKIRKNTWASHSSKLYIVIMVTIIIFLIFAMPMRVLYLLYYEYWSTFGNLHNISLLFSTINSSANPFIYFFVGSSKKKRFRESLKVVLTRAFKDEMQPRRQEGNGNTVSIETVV
Description: as §4
D-Pro7-ang-(1-7), ang-(1-7) with a D-isomer of proline at position 7, which is a Mas-receptor antagonists, was from JPT and purified by HPLC prior to use. This antagonist was used as in Kluskens et al 2009: 10 min before addition of 30 nM PE at a concentration of 0.1 μM. Other materials and methods were as in example 1.

[4] = tested on: extracellular-signal-regulated kinase (ERK) phosphorylation in human bronchial epithelial (HBE) cells; test: Peptide-induced Erk1/Erk2/total Erk phosphorylation in HBE cells; assay type: cell-based; conditions: peptide 10^-6 M, 10 min challenge
Description: as §1, §2
as §3, with “The lysate was transferred to 1.5 ml eppendorf cups and centrifuged 5 minutes at 12.700×g to pellet the cell debris.” left out, “Protein was separated on gel and blotted with p-ERK mouse monoclonal IgG2a and mouse GAPDH anti-rat IgG1 antibodies and as a second antibody goat anti-mouse IgG-AP.” left out, “cells. […]” for “cells.”

Question: For “ScAng-(1-7): thioether bridged cAng-(1-7) with Ser at position -1, made from SDRVdCIHC (SEQ ID No: 14) (SDRV[dC]IHC; bridge 5-8; not fully specified (bridges); also: thioether formed from the disulfide precursor by sulfur extrusion)”, which “interaction with / stimulation of the AT2 receptor (conclusion from PD123319 sensitivity of ERK phosphorylation)” value [1] is on record?
Answer: did not or hardly interact with the AT2 receptor

Question: And the “inhibition of peptide-induced ERK1 phosphorylation by PD123319” value [1]?
Answer: less

Question: And the “inhibition of peptide-induced ERK2 phosphorylation by PD123319” value [1]?
Answer: did not affect

Question: What about the “inhibition of peptide-induced ERK2 phosphorylation by PD123319” value ([1]; listed as Ser) of the same substance?
Answer: less or absent

Question: Which results are given for “Tyr-Asp-Arg-Val-Abu/Ala-Ile-His-Abu/Ala (YDRVAIHA; not fully specified; thioether bridge (lanthionine); cyclic AT2 receptor antagonist) [YcAng-(1-7), cAng-(1-7) N-terminally extended with Tyr]”?
Answer: vasodilation of precontracted aorta rings (percentage of relaxation of 30 nM PE contraction) [2]: significant vasodilating capacity; inhibition of peptide-induced vasodilation by Mas receptor antagonist D-Pro7 [3]: does not inhibit

Question: Which results are given for “Ile-Asp-Arg-Val-Abu/Ala-Ile-His-Abu/Ala (IDRVAIHA; not fully specified; thioether bridge (lanthionine); cyclic AT2 receptor antagonist) [IcAng-(1-7)]”?
Answer: peptide-induced Erk1 phosphorylation [4]: induced Erk1 phosphorylation; inhibition of peptide-induced ERK1 phosphorylation by PD123319 [1]: inhibited; inhibition of peptide-induced ERK phosphorylation (ERK1 and ERK2) by PD123319 [1]: complete

Question: “DDRVAIHA (cyclic AT2 receptor antagonist) [reference compound]” was tested. Which “peptide-induced (total) Erk phosphorylation” value [4] did it give?
Answer: induced Erk phosphorylation

Question: And the “inhibition of peptide-induced (total) Erk phosphorylation by PD123319” value [1]?
Answer: could not be inhibited

Question: Which “peptide-induced (total) Erk phosphorylation” value [4] does the source give for “IDDRVAIHA (not fully specified) [reference compound]” here?
Answer: induced Erk phosphorylation

Question: And the “inhibition of peptide-induced (total) Erk phosphorylation by PD123319” value [1]?
Answer: no inhibition at all

Question: What does the source list for “Asn-Asp-Arg-Val-Abu/Ala-Ile-His-Abu/Ala (NDRVAIHA; not fully specified; thioether bridge (lanthionine); cyclic AT2 receptor antagonist) [N-cAng(1-7)]”?
Answer: interaction with / stimulation of the AT2 receptor (conclusion from PD123319 sensitivity of ERK phosphorylation) [1]: did not or hardly interact with the AT2 receptor; inhibition of peptide-induced ERK1 phosphorylation by PD123319 [1]: less; inhibition of peptide-induced ERK2 phosphorylation by PD123319 [1]: less or absent

Question: Which results are given for “Asp-Asp-Arg-Val-Abu/Ala-Ile-His-Abu/Ala (DDRVAIHA; not fully specified; thioether bridge (lanthionine); cyclic AT2 receptor antagonist) [DcAng-(1-7)]”?
Answer: peptide-induced Erk1 phosphorylation [4]: induced Erk1 phosphorylation; inhibition of peptide-induced ERK1 phosphorylation by PD123319 [1]: inhibited; inhibition of peptide-induced ERK phosphorylation (ERK1 and ERK2) by PD123319 [1]: complete

Question: Which results are given for “Lys-Asp-Arg-Val-Abu/Ala-Ile-His-Abu/Ala (KDRVAIHA; not fully specified; thioether bridge (lanthionine); cyclic AT2 receptor antagonist) [KcAng-(1-7), cAng-(1-7) N-terminally extended with Lys]”?
Answer: vasodilation of precontracted aorta rings (percentage of relaxation of 30 nM PE contraction) [2]: significant vasodilating capacity; inhibition of peptide-induced ERK phosphorylation (ERK1 and ERK2) by PD123319 [1]: complete; inhibition of peptide-induced vasodilation by Mas receptor antagonist D-Pro7 [3]: does not inhibit
